Measurements reported in patent publication US11306156.

Key:
[1] = target: tissue factor (TF) antigen (UniProt P13726); test: SPR; against wild-type D3H44 Fab
[2] = target: tissue factor (TF) antigen (UniProt P13726); test: SPR (ProteOn), Fab captured on anti-penta His, TF as analyte, 1:1 fit
[3] = target: tissue factor (TF) antigen (UniProt P13726); test: SPR; reference wild-type D3H44 Fab
[4] = target: tissue factor (TF) antigen (UniProt P13726); test: SPR, Fab captured by anti-His, TF as analyte
[5] = target: tissue factor (TF) antigen (UniProt P13726); test: SPR (ProteOn XPR36): His-tagged Fab captured on anti-penta-His surface, TF as analyte, 1:1 fit
[6] = target: tissue factor (TF) antigen (UniProt P13726); test: SPR; log ratio against wild-type D3H44 Fab
[7] = target: tissue factor (TF) antigen (UniProt P13726); test: SPR (ProteOn XPR36): Fab captured via His tag on anti-penta-His, TF as analyte, 1:1 fit

Sequence of tissue factor (TF) antigen (P13726 33-251 limits assumed): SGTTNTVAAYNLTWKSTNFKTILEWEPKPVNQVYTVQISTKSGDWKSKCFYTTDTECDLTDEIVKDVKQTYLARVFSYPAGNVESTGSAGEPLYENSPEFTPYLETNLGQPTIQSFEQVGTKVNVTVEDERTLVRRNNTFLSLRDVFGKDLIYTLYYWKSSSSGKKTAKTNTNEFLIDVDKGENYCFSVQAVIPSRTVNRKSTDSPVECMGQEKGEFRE

Substance	Change in KD with respect to wild type (-(log(KD design) - log(KD wt))) [1]	Kd [2] [nM]	Kd [4] [nM]	further results
D3H44 Fab heterodimer, H1 A139G_F174V_V190A / L1 S131T_L135F_S176F_T178F (H1L1 of LCCA set 9051)	0.06	0.14	–	–
D3H44 Fab heterodimer, heavy L124E_L143D_K145M / light Q124K_V133G_S176R_T178K	–	–	0.22	Change in KD of h1|1 Fab heterodimer with respect to wild type (-(log(KD design) - log(KD wt))) [3]: -0.15
D3H44 Fab heterodimer, H1 A139W_S188L / L1 F116A_L135V (H1L1 of LCCA sets 9063 and 9062)	-0.02	0.17	–	–
D3H44 Fab heterodimer, H1 L124E_H172T / L1 V133G_N137K_S174R_S176R (H1L1 of LCCA set 9120)	0.08	0.13	–	–
D3H44 H1L1 Fab heterodimer of LCCA sets 9571 and 9572 (H1 L124W_L143F_K145T_Q179E; L1 S131K_V133A_S176T_T178L)	–	–	–	Change in median values of KD of h1|1 Fab heterodimer compared to wild type (-(log(KD design)-log(KD wt))) [5]: -0.21 log units; Kd [5]: 0.26 nM
D3H44 H1L1 Fab heterodimer of LCCA set 9066 (H1 F122C_L124E; L1 Q124C_V133G_S176R)	–	–	–	Change in median values of KD of h1|1 Fab heterodimer compared to wild type (-(log(KD design)-log(KD wt))) [5]: -0.04 log units; Kd [5]: 0.17 nM
D3H44 Fab heterodimer, heavy L124E_L143E_K145M / light Q124K_V133G_S176R_T178K	–	–	0.24	Change in KD of h1|1 Fab heterodimer with respect to wild type (-(log(KD design) - log(KD wt))) [3]: -0.19
D3H44 Fab heterodimer, heavy L124R_Q179K / light Q124E_V133G_S176D_T178E_T180E	–	–	0.22	Change in KD of h2|2 Fab heterodimer with respect to wild type (-(log(KD design) - log(KD wt))) [3]: -0.15
D3H44 Fab heterodimer, H1 L124R_S186K / L1 V133G_S176D_T178D_T180E (H1L1 of LCCA set 9473)	-0.07	0.18	–	–
D3H44 Fab heterodimer, heavy L124E_L143E_K145M / light Q124K_V133G_S176R_T178R	–	–	0.31	Change in KD of h1|1 Fab heterodimer with respect to wild type (-(log(KD design) - log(KD wt))) [3]: -0.29
D3H44 Fab heterodimer, H Q179K / L Q124E_S176L_T180E (H1L1 of LCCA set 9782)	–	–	–	Change in KD with respect to wild type (-(log(KD design) - log(KD wt))) [6]: 0.28; Kd [7]: 0.08 nM
D3H44 Fab heterodimer, H1 L124R_D146N_Q179K / L1 Q124E_V133G_S176D_T178E_T180E (H1L1 of LCCA set 9351)	-0.1	0.2	–	–
D3H44 Fab heterodimer, heavy L124E_L143D_K145T / light Q124K_V133G_S176R_T178K	–	–	0.19	Change in KD of h1|1 Fab heterodimer with respect to wild type (-(log(KD design) - log(KD wt))) [3]: -0.08
D3H44 Fab heterodimer, heavy L124E_L143E_K145T / light Q124K_V133G_Q160K_S176R	–	–	0.2	Change in KD of h1|1 Fab heterodimer with respect to wild type (-(log(KD design) - log(KD wt))) [3]: -0.12
D3H44 Fab heterodimer, H1 S186K / L1 Q124E_T180E (H1L1 of LCCA set 9862)	0.46	0.06	–	–
D3H44 Fab heterodimer, H L143E_K145T_Q179E / L Q124R_Q160K_T178R (H1L1 of LCCA set 9654)	–	–	–	Change in KD with respect to wild type (-(log(KD design) - log(KD wt))) [6]: 0.02; Kd [7]: 0.15 nM
D3H44 Fab heterodimer, H L143E_K145T_Q179E_S188L / L Q124R_T178R (H1L1 of LCCA sets 9696 and 9692)	–	–	–	Change in KD with respect to wild type (-(log(KD design) - log(KD wt))) [6]: -0.34; Kd [7]: 0.34 nM
D3H44 Fab heterodimer, heavy L124R_S186K / light Q124E_V133G_S176D_T178D_T180E	–	–	0.26	Change in KD of h2|2 Fab heterodimer with respect to wild type (-(log(KD design) - log(KD wt))) [3]: -0.23
D3H44 Fab heterodimer, heavy L124R_Q179K / light V133G_S176D_T178E_T180E	–	–	0.23	Change in KD of h2|2 Fab heterodimer with respect to wild type (-(log(KD design) - log(KD wt))) [3]: -0.16
D3H44 Fab heterodimer, H1 L124E_L143D_K145T / L1 Q124K_V133G_S176R_T178K (H1L1 of LCCA sets 9216 and 9220)	-0.08	0.19	–	–
D3H44 Fab heterodimer, H Q179K / L Q124E_Q160E_T180E (H1L1 of LCCA sets 9761, 9769 and 9767)	–	–	–	Change in KD with respect to wild type (-(log(KD design) - log(KD wt))) [6]: -0.31; Kd [7]: 0.32 nM
D3H44 Fab heterodimer, H1 K145T_Q179E / L1 S131K (H1L1 of LCCA set 9082)	-0.01	0.16	–	–
D3H44 Fab heterodimer, H1 L143E_K145T_Q179D / L1 Q124R_Q160K_T178R (H1L1 of LCCA set 9620)	0.39	0.06	–	–

Substance	Change in KD with respect to wild type (-(log(KD design) - log(KD wt))) [1]	Kd [2] [nM]	Kd [4] [nM]	further results
D3H44 Fab heterodimer, H1 S186R / L1 Q124E_T180E (H1L1 of LCCA set 9900)	0.36	0.07	–	–
D3H44 Fab heterodimer, heavy L124R_S186R / light Q124E_V133G_S176D_T178D_T180E	–	–	0.26	Change in KD of h2|2 Fab heterodimer with respect to wild type (-(log(KD design) - log(KD wt))) [3]: -0.21
D3H44 Fab heterodimer, heavy L124E_L143E_K145M / light Q124K_V133G_Q160K_S176R	–	–	0.28	Change in KD of h1|1 Fab heterodimer with respect to wild type (-(log(KD design) - log(KD wt))) [3]: -0.26
D3H44 H1L1 Fab heterodimer of LCCA set 9060 (H1 A139W_L143E_K145T_Q179E; L1 F116A_Q124R_L135V_T178R)	–	–	–	Change in median values of KD of h1|1 Fab heterodimer compared to wild type (-(log(KD design)-log(KD wt))) [5]: 0.04 log units; Kd [5]: 0.14 nM
D3H44 Fab heterodimer, heavy L124E_L143D_K145T / light Q124K_V133G_S176R_T178R	–	–	0.16	Change in KD of h1|1 Fab heterodimer with respect to wild type (-(log(KD design) - log(KD wt))) [3]: -0.02
D3H44 Fab heterodimer, H L143E_K145T / L Q124R (H1L1 of LCCA set 9587)	–	–	–	Change in KD with respect to wild type (-(log(KD design) - log(KD wt))) [6]: -0.25; Kd [7]: 0.28 nM
D3H44 Fab heterodimer, H1 Q179K / L1 Q124E_T178E (H1L1 of LCCA set 9783)	0.05	0.14	–	–
D3H44 Fab heterodimer, H1 Q179K / L1 Q124E_Q160E_T180E (H1L1 of LCCA set 9763)	-0.31	0.32	–	–
D3H44 Fab heterodimer, heavy L124R_S186R / light V133G_S176D_T178E_T180E	–	–	0.22	Change in KD of h2|2 Fab heterodimer with respect to wild type (-(log(KD design) - log(KD wt))) [3]: -0.15
D3H44 Fab heterodimer, H Q179K / L Q124E_T180E (H1L1 of LCCA sets 9797, 9794, 9789 and 9787)	–	–	–	Change in KD with respect to wild type (-(log(KD design) - log(KD wt))) [6]: 0.16; Kd [7]: 0.11 nM
D3H44 Fab heterodimer, heavy L124R_S186K / light V133G_S176D_T178D_T180E	–	–	0.18	Change in KD of h2|2 Fab heterodimer with respect to wild type (-(log(KD design) - log(KD wt))) [3]: -0.07
D3H44 Fab heterodimer, H L143E_K145T_Q179D / L Q124R_T178K (H1L1 of LCCA set 9626)	–	–	–	Change in KD with respect to wild type (-(log(KD design) - log(KD wt))) [6]: 0.12; Kd [7]: 0.12 nM
D3H44 Fab heterodimer, H S186R / L Q124E_T180E (H1L1 of LCCA sets 9891, 9901, 9898 and 9893)	–	–	–	Change in KD with respect to wild type (-(log(KD design) - log(KD wt))) [6]: 0.36; Kd [7]: 0.07 nM
D3H44 Fab heterodimer, H1 Q179K / L1 Q124E_T180E (H1L1 of LCCA sets 9796 and 9789)	0.16	0.11	–	–
D3H44 Fab heterodimer, H1 L124E_L143E_K145M / L1 Q124K_V133G_S176R_T178K (H1L1 of LCCA sets 9260 and 9263)	-0.19	0.24	–	–
D3H44 Fab heterodimer, H1 A139G_V190A / L1 L135W_S176L (H1L1 of LCCA set 9056)	-0.02	0.16	–	–
D3H44 H1L1 Fab heterodimer of LCCA sets 9101 and 9100 (H1 L124A_Q179K; L1 Q124E_V133W_T180E)	–	–	–	Change in median values of KD of h1|1 Fab heterodimer compared to wild type (-(log(KD design)-log(KD wt))) [5]: 0.1 log units; Kd [5]: 0.12 nM
D3H44 H1L1 Fab heterodimer of LCCA sets 9786 and 9785 (H1 Q179K; L1 Q124E_T178E_T180E)	–	–	–	Change in median values of KD of h1|1 Fab heterodimer compared to wild type (-(log(KD design)-log(KD wt))) [5]: 0.1 log units; Kd [5]: 0.13 nM
D3H44 Fab heterodimer, H S186K / L Q124E_Q160E_T178E (H1L1 of LCCA set 9829)	–	–	–	Change in KD with respect to wild type (-(log(KD design) - log(KD wt))) [6]: 0.41; Kd [7]: 0.06 nM
D3H44 Fab heterodimer, H S186R / L Q124E_Q160E_T180E (H1L1 of LCCA sets 9876 and 9874)	–	–	–	Change in KD with respect to wild type (-(log(KD design) - log(KD wt))) [6]: 0.51; Kd [7]: 0.05 nM
D3H44 Fab heterodimer, H1 L124E_L143D_K145M / L1 Q124K_V133G_S176R_T178K (H1L1 of LCCA set 9178)	-0.15	0.22	–	–
D3H44 Fab heterodimer, heavy L124E_L143D_K145M / light Q124K_V133G_Q160K_S176R	–	–	0.27	Change in KD of h1|1 Fab heterodimer with respect to wild type (-(log(KD design) - log(KD wt))) [3]: -0.24
D3H44 Fab heterodimer, H Q179R / L Q124E_S176L_T180E (H1L1 of LCCA set 9808)	–	–	–	Change in KD with respect to wild type (-(log(KD design) - log(KD wt))) [6]: -0.02; Kd [7]: 0.17 nM
